Numbering of substitutions follows the chain as printed. Names and notes keep the numbering of the source. Where two headings read alike, the source gives them in different places. Each block holds one molecule with its values, some of them ahead of it.
Tests used:
[1] = target: PHOX2B Q46R homeodomain protein (human); assay: native gel or EMSA
[2] = target: PHOX2B Q46K homeodomain protein (human); assay: native gel or EMSA
[3] = target: ALX4 homeodomain protein (amino acids 209-274) (human) (UniProt Q9H161); assay: native gel or EMSA
[4] = target: OTP homeodomain protein (amino acids 99-164) (human) (UniProt Q5XKR4); assay: native gel or EMSA
[5] = target: PITX3 homeodomain protein (66 amino acid region) (human); assay: native gel or EMSA
CRX HD [6] = target: T1, CRX HD (Homo sapiens, UniProt O43186 34-99); assay: EMSA
CRX HD K50Q [7] = target: T2, CRX HD K50Q (Homo sapiens, UniProt O43186 34-99, K88Q); assay: EMSA
CRX HD E4N;K50Q [8] = target: T3, CRX HD E4N;K50Q (Homo sapiens, UniProt O43186 34-99, E42N;K88Q); assay: EMSA
CRX HD R2Q [9] = target: T4, CRX HD R2Q (Homo sapiens, UniProt O43186 34-99, R40Q); assay: EMSA
CRX HD R3Q = CRX HD R3Q (Homo sapiens, UniProt O43186 34-99, R41Q); assay: EMSA
CRX HD E4K = CRX HD E4K (Homo sapiens, UniProt O43186 34-99, E42K); assay: EMSA
CRX HD [10] = target: T1, CRX HD; assay: EMSA; remark: listed apart in the source
CRX HD K50Q [11] = target: T2, CRX HD K50Q; assay: EMSA; remark: listed apart in the source
CRX HD E4N;K50Q [12] = target: T3, CRX HD E4N;K50Q; assay: EMSA; remark: listed apart in the source
CRX HD E4N = CRX HD E4N (Homo sapiens, UniProt O43186 34-99, E42N); assay: EMSA
CRX HD R2Q [13] = target: T4, CRX HD R2Q; assay: EMSA; remark: listed apart in the source
ARX HD P26L = ARX HD P26L (Mus musculus, UniProt O35085 326-390, P355L); assay: EMSA
PHOX2B HD R44G = PHOX2B HD R44G (Homo sapiens, UniProt Q99453 94-158, R141G); assay: EMSA
PHOX2B HD R44G, sequence (Q99453 94-158 R141G): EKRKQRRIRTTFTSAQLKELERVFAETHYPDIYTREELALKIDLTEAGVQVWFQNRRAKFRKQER

T3 sequence (O43186 34-99 E42N/K88Q): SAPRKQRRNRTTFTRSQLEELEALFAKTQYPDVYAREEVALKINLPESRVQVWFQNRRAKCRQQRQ
T2 sequence (O43186 34-99 K88Q): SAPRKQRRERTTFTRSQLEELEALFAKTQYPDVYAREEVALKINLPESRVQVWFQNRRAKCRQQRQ
T4 sequence (O43186 34-99 R40Q): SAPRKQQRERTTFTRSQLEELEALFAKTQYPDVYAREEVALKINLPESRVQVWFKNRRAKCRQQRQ
T1 sequence (O43186 34-99): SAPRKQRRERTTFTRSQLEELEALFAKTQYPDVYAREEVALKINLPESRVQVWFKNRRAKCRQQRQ
CRX HD R3Q, sequence (O43186 34-99 R41Q): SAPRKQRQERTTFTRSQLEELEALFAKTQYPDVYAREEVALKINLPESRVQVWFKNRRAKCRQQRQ
CRX HD E4N, sequence (O43186 34-99 E42N): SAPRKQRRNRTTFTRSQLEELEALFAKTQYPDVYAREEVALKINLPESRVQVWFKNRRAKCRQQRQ
ARX HD P26L, sequence (O35085 326-390 P355L): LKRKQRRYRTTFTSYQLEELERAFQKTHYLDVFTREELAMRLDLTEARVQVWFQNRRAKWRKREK
CRX HD E4K, sequence (O43186 34-99 E42K): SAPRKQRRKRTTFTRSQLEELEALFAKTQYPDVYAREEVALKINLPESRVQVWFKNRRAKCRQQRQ

B1: P4K (dsDNA)
DNA 1: TGTGTCTTAATCCGGATTAACGCACTTGATAGTGCGGGCGTGGCT
DNA 2: AGCCACGCCCGCACTATCAAGTGCGTTAATCCGGATTAAGACACA
binding result (CRX HD [6]): binds

B2: Q50 monomer (TAATTA) (dsDNA)
DNA 1: CGGGCTAATTAGGCCTAGTGCGGGCGTGGCT
DNA 2: AGCCACGCCCGCACTAGGCCTAATTAGCCCG
binding result (CRX HD K50Q [7]): binds
binding result (CRX HD E4N;K50Q [8]): binds

B3: K50 monomer (TAATCC) (dsDNA)
DNA 1: B2 DNA 1 with T10C, A11C
DNA 2: B2 DNA 2 with T21G, A22G
binding result (CRX HD R2Q [9]): binds
binding result (CRX HD R3Q): binds
binding result (CRX HD E4K): binds

B4: P3K (dsDNA)
DNA 1: TGTGTCTTAATCCGATTAACGCACTTGATAGTGCGGGCGTGGCT
DNA 2: AGCCACGCCCGCACTATCAAGTGCGTTAATCGGATTAAGACACA
binding signal (CRX HD [10]): 8.94 ± 1.78 Tau
binding signal (CRX HD K50Q [11]): 340 ± 161 Tau
binding signal (CRX HD E4N;K50Q [12]): 395 ± 90.1 Tau
binding result (CRX HD E4N): binds
binding result (CRX HD R2Q [13]): binds

B5: P3Q (dsDNA)
DNA 1: B4 DNA 1 with C12T, C13A
DNA 2: B4 DNA 2 with G32T, G33A
binding signal (CRX HD K50Q [11]): 54.6 ± 2.72 Tau
binding signal (CRX HD E4N;K50Q [12]): 112 ± 12.1 Tau
binding signal (ARX HD P26L): ~10 fold decrease in Tau vs WT
binding result (PHOX2B HD R44G): no binding

The remaining lines, values ahead:

Tau with P3Q DNA [1]: 1.27
Molecule: PHOX2B Q46R homeodomain protein (domain or fragment)

Tau with P3Q DNA [2]: 0.9
Molecule: PHOX2B Q46K homeodomain protein (domain or fragment)

Tau with P4Q DNA [3]: 0.792
Molecule: ALX4 homeodomain protein (amino acids 209-274) (from UniProt Q9H161 209-274) (domain or fragment)

Tau with P4Q DNA [4]: 0.29
Molecule: OTP homeodomain protein (amino acids 99-164) (from UniProt Q5XKR4 99-164) (domain or fragment)

Tau with P3K DNA [5]: 0.157
Molecule: PITX3 homeodomain protein (66 amino acid region) (domain or fragment)

Source: article PMC13530268
